Key:
[1] = target: MPL-zalpha11 chimera (MPL extracellular and transmembrane domains fused to the zalpha11 intracellular signaling domain) (human); test: cell-based or functional assay
[2] = target: factor present in the activated CD3+ selected human T-cell conditioned media; test: cell-based or functional assay

proliferation of BaF3/MPL-zalpha11 cells (Alamar Blue), fold over background (fold over background) [1] | inhibition of conditioned-medium-driven BaF3/Zalpha11 cell growth; soluble receptor concentration giving complete inhibition [2] [µg/mL] | titration of soluble receptor; lowest concentration completely inhibiting BaF3/Zalpha11 growth [2] [µg/mL] | Substance
10 |  |  | thrombopoietin (TPO) (ligand)
 | 10 | 1.5 | zalpha11-Fc4 soluble receptor (zalpha11 extracellular domain fused C-terminally to human IgG Fc, Fc4) (from UniProt Q9HBE5 20-237) (Fc fusion)

Source: patent publication US20030148447A1
